Patent publication US20230167182A1 (BIOSION, published 2023)
Like-named read-outs stand apart in the source and are kept apart here.

T1: macaca IL6R-his protein (macaca mulatta)
T1 chain: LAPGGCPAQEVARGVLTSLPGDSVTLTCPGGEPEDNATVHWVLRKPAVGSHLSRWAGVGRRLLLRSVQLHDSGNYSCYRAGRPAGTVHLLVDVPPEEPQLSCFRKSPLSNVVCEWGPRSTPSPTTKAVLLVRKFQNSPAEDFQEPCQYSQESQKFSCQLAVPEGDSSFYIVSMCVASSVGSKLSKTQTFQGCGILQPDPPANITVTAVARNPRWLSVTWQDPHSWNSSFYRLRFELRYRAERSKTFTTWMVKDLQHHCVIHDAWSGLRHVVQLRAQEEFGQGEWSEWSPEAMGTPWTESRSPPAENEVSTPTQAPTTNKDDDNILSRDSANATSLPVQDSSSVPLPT

T2: recombinant human IL6R-his (human, UniProt P08887 20-365)
T2 construct: In house made; the entry includes the C-terminal His tag; also called human IL6R-his protein
T2 sequence: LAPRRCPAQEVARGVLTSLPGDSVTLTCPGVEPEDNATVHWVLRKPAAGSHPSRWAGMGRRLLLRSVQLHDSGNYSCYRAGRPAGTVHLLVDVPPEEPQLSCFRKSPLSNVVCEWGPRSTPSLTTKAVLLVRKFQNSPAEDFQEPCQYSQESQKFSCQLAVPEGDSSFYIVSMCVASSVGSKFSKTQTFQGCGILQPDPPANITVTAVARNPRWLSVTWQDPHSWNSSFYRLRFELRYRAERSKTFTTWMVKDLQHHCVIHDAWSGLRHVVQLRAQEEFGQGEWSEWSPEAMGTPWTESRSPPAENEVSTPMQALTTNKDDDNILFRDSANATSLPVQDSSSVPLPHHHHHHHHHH


How the values were obtained:
[1] = target: T1, macaca IL6R-his protein; experiment: indirect ELISA on plate-coated macaca IL6R-his
Experimental: (§1) The anti-IL6R antibodies were tested for their cross-reaction with macaca IL6R. Briefly, 96-well micro plates were coated with 2 μg/ml macaca IL6R-his protein (in house made, amino acid sequence set forth in SEQ ID NO:45) in carbonate/bicarbonate buffer (pH 9.6), 100 μl/well, for 2 hours at 37° C. ELISA plates were washed once with wash buffer (PBS+0.05% v/v Tween-20, PBST) and then blocked with 200 μl/well blocking buffer (5% w/v non-fatty milk in PBST) for 2 hours at 37° C. Plates were washed 4 times and incubated with 100 μl/well serially diluted anti-IL6R antibodies of the disclosure or controls, starting at 66.67 nM with 5-fold serial dilution in PBST with 2.5% w/v non-fat milk, and incubated at 37° C. for 40 minutes. ELISA plates were washed 4 times again and incubated with 100 μl/well Peroxidase AffiniPure Goat Anti-Mouse IgG, Fcγ Fragment Specific (1:5000 dilution in PBST buffer, Jackson ImmunoResearch Laboratories, Inc., Cat #115-035-071) for 40 minutes at 37° C. After the final wash, plates were incubated with 100 μl/well TMB (InnoReagents). The reaction was stopped 3-10 minutes later at room temperature with 50 μl/well 1M H₂SO₄, and the absorbance of each well was read on a microplate reader using dual wavelength mode with 450 nm for TMB and 630 nm as the reference wavelength. Then the OD (450-630) values were plotted against antibody concentration. Data was analyzed using Graphpad Prism software and EC₅₀ values were reported.

[2] = target: T1, macaca IL6R-his protein; experiment: SPR Biacore; purified antibody captured by anti-human IgG on CM5, antigen in flow
[3] = target: T2, recombinant human IL6R-his; experiment: as above
[4] = target: T3, human IL6R-Fc protein (human, biotin-labeled in the ELISAs (sites not given)); experiment: capture ELISA: antibody captured on anti-IgG F(ab')2 coated plate, then biotin-labeled human IL6R-Fc, streptavidin-HRP
T3 construct: In house made; also called biotin-labeled human IL6R-Fc protein
Experimental: For the capture ELISA, 96-well micro plates were coated with 2 μg/ml AffiniPure Goat Anti-Mouse IgG, F(ab′)₂ fragment specific (Jackson ImmunoResearch Laboratories, Inc., Cat #115-005-072) in PBS, 100 μl/well, and incubated for 2 hours at 37° C. Plates were washed once with wash buffer (PBS+0.05% v/v Tween-20, PBST) and then blocked with 200 μl/well blocking buffer (5% w/v non-fatty milk in PBST) overnight at 4° C. […] Plates containing captured anti-IL6R antibodies were incubated with biotin-labeled human IL6R-Fc protein (prepared in house, SEQ ID NO: 43, 39.5 ng/ml in 2.5% w/v non-fatty milk in PBST, 100 μl/well) for 40 minutes at 37° C., washed 4 times, and incubated with streptavidin conjugated HRP (1:10000 dilution in PBST, Jackson ImmunoResearch Laboratories, Inc., Cat #016-030-084, 100 μl/well) for 40 minutes at 37° C. After a final wash, plates were incubated with 100 μl/well ELISA substrate TMB (InnoReagents, Cat #TMB-S-002). The reaction was stopped 3-10 minutes later at room temperature with 50 μl/well 1M H₂SO₄, and the absorbance of each well was read on a microplate reader using dual wavelength mode at 450 nm for TMB and 630 nm as the reference wavelength. Then the OD (450-630) values were plotted against antibody concentration. Data was analyzed using Graphpad Prism software and EC₅₀ values were reported.
For the capture ELISA, AffiniPure Goat Anti-Human IgG, F(ab′)₂ fragment specific (Jackson Immuno Research, Cat #109-005-097) was used instead of AffiniPure Goat Anti-Mouse IgG, F(ab′)₂ fragment specific, 100 μl/well.
Target sequence in this assay (chain, as listed by the source limits assumed): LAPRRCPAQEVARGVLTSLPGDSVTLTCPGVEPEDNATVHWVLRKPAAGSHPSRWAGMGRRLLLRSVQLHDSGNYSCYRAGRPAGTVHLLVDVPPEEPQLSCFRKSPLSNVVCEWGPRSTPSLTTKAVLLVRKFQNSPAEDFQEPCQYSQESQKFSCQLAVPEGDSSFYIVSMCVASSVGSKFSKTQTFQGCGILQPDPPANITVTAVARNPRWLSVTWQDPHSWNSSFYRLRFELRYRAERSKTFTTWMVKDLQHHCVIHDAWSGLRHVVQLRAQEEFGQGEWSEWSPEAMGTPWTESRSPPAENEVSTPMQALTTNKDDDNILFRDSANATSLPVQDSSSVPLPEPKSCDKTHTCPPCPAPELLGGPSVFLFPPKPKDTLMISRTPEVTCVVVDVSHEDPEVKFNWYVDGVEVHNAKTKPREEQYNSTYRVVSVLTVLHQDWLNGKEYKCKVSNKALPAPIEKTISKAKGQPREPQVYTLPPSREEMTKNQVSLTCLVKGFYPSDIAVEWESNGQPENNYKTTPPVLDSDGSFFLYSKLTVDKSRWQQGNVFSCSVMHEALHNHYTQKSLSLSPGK

[5] = target: T3, human IL6R-Fc protein; experiment: ligand blocking ELISA: antibody pre-incubated with biotin-labeled human IL6R-Fc, added to plate-coated human IL6 (blocked ligand: human IL6)
Experimental: The next day, anti-IL6R antibodies or controls were diluted with biotin labeled human IL6R-Fc protein (prepared in house, SEQ ID NO: 43, 39.5 ng/ml in 2.5% w/v non-fatty milk in PBST), starting at 100 nM with a 4-fold serial dilution, and incubated at room temperature for 40 minutes. […] Plates were washed for 4 times using wash buffer, and added and incubated with 100 μl/well of streptavidin conjugated HRP (1:10000 dilution in PBST buffer, Jackson ImmunoResearch Laboratories, Inc., Cat #016-030-084) for 40 minutes at 37° C. Plates were washed again using wash buffer. Finally, TMB was added and the reaction was stopped using 1M H₂SO₄. The absorbance was read on a microplate reader using dual wavelength mode with 450 nm for TMB and 630 nm as the reference wavelength, and then the OD (450-630) values were plotted against antibody concentration. Data was analyzed using Graphpad Prism software and IC₅₀ values were reported.

[6] = target: T1, macaca IL6R-his protein; experiment: indirect ELISA on plate-coated macaca IL6R-his
Experimental: as §1

Binder | EC50 [1] | Kd [2] | Kd [3] | EC50 [4] | IC50 [5] | EC50 [6] | other results
Chimeric 1H7 (antibody, human IgG1, kappa, V domains shown, Mouse variable regions on human IgG1 / human kappa constant regions; also called chimeric antibody 1H7) VH: QVQLQQPGTELVKPGASVKLSCKASGYTFTNYWMHWVKQRPGQGLDWIGEINPTNGRTNYNENFKSKATLTVDKSSSTAYMQLSSLTSEDSAVYYCARLNTHYVFDSWGQGTTLTLSS VL: EIVLTQSPTTLAASPGEKITFTCSVSSSISSNYLHWYQQKPGFSPKLLISRTSTLASGVPARFSGSGSGTSYSLTIGTMEAEDVATYYCQQGSGIPFTFGSGTKLELKR | – | 1180 pM | 850 pM | 78 pM | – | – | koff [2]: 0.000112 s⁻¹; kon [2]: 94800 M⁻¹ s⁻¹; koff [3]: 0.000112 s⁻¹; kon [3]: 132000 M⁻¹ s⁻¹
mouse anti-IL6R monoclonal antibody 1A3 (antibody, V domains shown, Mouse hybridoma mAb purified on Protein A) VH: QVQLQQPGAELVKPGASVKLSCKASGYTFTSYWMHWVKQRPAQGLEWIGEINPSNGRTNFNEKFKTKATLTVDKSSNTAYMQLSSLTSEDSAVYSCLRLNTHYVFDYWGQGTTLTVSS VL: EIVLTQSPTTMAASPGEKITITCSASSSISSNYLHWYQQKPGFSPKLLISRTSNLASGVPTRFSGSGSGTSYSLTIGTMEAGDVATYYCQQGSGIPFTFGSGTKLEIK | – | – | – | – | – | 228 pM | –
mouse anti-IL6R monoclonal antibody 1D4 (antibody, V domains shown, Mouse hybridoma mAb) VH: QVQLQQPGAELVKPGASVKLSCKASGYTFTSYWMHWVKVRPGQGLEWIGEINPTNGRTNYNEDFKSKATLTVNSSSSTAYMQLSSLTSEDSAVYYCARLNTHYVFDYWGQGTTLTVSS VL: EIVLTQSPTILAASPGEKITFTCSVSSSISSNYLHWYQQKPGFSPKLLIYRTSNLASGVPARFSGSGSGTSYSLTIGTMEAEDVATYYCQQGSGIPFTFGSGTKLEIK | – | – | – | – | 957 pM | 175 pM | –
Tocilizumab (antibody, human IgG1, kappa, V domains shown, In house made; also called benchmark; Actemra) VH: QVQLQESGPGLVRPSQTLSLTCTVSGYSITSDHAWSWVRQPPGRGLEWIGYISYSGITTYNPSLKSRVTMLRDTSKNQFSLRLSSVTAADTAVYYCARSLARTTAMDYWGQGSLVTVSS VL: DIQMTQSPSSLSASVGDRVTITCRASQDISSYLNWYQQKPGKAPKLLIYYTSRLHSGVPSRFSGSGSGTDFTFTISSLQPEDIATYYCQQGNTLPYTFGQGTKVEIKR | 57.5 pM | 9160 pM | 7420 pM | 191 pM | 2300 pM | 58.9 pM | –
humanized antibody hu1H7-V5 (antibody, human IgG1, kappa, V domains shown, Human IgG1 / kappa) VH: QVQLVQSGAEVKKPGASVKVSCKASGYTFTNYWMHWVRQAPGQGLEWIGEINPTNGRTNYNENFKSRVTLTVDTSTSTVYMELSSLRSEDTAVYYCARLNTHYVFDSWGQGTLVTVSS VL: EIVLTQSPGTLSLSPGERATLSCSVSSSISSNYLHWYQQKPGLSPRLLISRTSTLASGIPARFSGSGSGTEYTLTISRMQSEDFAVYYCQQGSGIPFTFGQGTKLEIKR | – | 1580 pM | 773 pM | – | – | – | koff [2]: 0.00012 s⁻¹; kon [2]: 75800 M⁻¹ s⁻¹; koff [3]: 0.000112 s⁻¹; kon [3]: 145000 M⁻¹ s⁻¹

Second part, led by results:

EC50 [1] | Kd [2] | Kd [3] | EC50 [4] | IC50 [5] | EC50 [6] | Binder | other results
340 pM | – | – | – | – | – | mouse anti-IL6R monoclonal antibody 1H9 (antibody, V domains shown, Mouse hybridoma mAb) VH: QVQLQQPGAELVKPGASVKLSCKASGYTFTSYWMHWVKLRPGQGLEWIGEINPTNGRTNYYEKFKNRATLTADKSSSTAYMQLSSLTFEDSAVYFCAKFHYSRWYFDVWGTGTTVTVSS VL: DIVMTQSQKFMSTSVGDRVSITCKASQNVGTAVVWYQQKPGQSPKLLINPASNRYTGVPDRFTGSGSGTDFTLTISNMQSEDLADYFCQQYSSYPLTFGAGTKLELK | –
– | – | – | – | 617 pM | – | mouse anti-IL6R monoclonal antibody 1F7 (antibody, V domains shown, Mouse hybridoma mAb) VH: QVQLQQPGAELVKPGASVKLSCKASDYTFTSYWMHWVKQRPGQGLEWIGEINPSNGRTNYNEKFKNKATLTVDKSSSTAYVQLYSLTSEDSAVYYCARLSIHYVFDYWGQGTTLTVSS VL: ELVLTQSPTTMAASPGEKITFTCSASSSISSNYLHWYQQKPGFSPKLLISGTSNLASGVPPRFSGSGSGTSYSLTIVTMEAEDVATYYCQQGSGIPFTFGSGTKLEIK | –
– | – | – | 55.3 pM | – | – | mouse anti-IL6R monoclonal antibody 1H7 (antibody, V domains shown, Mouse hybridoma mAb) VH: QVQLQQPGTELVKPGASVKLSCKASGYTFTNYWMHWVKQRPGQGLDWIGEINPTNGRTNYNENFKSKATLTVDKSSSTAYMQLSSLTSEDSAVYYCARLNTHYVFDSWGQGTTLTLSS VL: EIVLTQSPTTLAASPGEKITFTCSVSSSISSNYLHWYQQKPGFSPKLLISRTSTLASGVPARFSGSGSGTSYSLTIGTMEAEDVATYYCQQGSGIPFTFGSGTKLELK | –
501 pM | – | – | – | – | – | mouse anti-IL6R monoclonal antibody 1G1 (antibody, V domains shown, Mouse hybridoma mAb) VH: QVQLQQPGAELVKPGASVKLSCKASGYTFTSYWMHWVKVRPGQGLEWIGEINPTNGRTNYNEDFKSKATLTVESSSSTAYMQFSSLTSEDSAVYYCARLNTHYVFDYWGQGTTLTVSS VL: EIVLTQSPTILAASPGEKITFTCSVSSSISSNYLHWYQQKPGFSPKLLIYRTSNLASGVPARFSGSGSGTSYSLTIGTMEAEDVATYYCQQGSGIPFTFGSGTKLEIK | –
– | – | – | 62.7 pM | – | – | mouse anti-IL6R monoclonal antibody 1B5 (antibody, V domains shown, Mouse hybridoma mAb) VH: QVQLQQPGAELVKPGASVKLSCKASGYTFTSYWMHWVKQRPGQGLEWIGEINPSNGRTNYNENFKSKATLTVDKSSSTAYMQLSSLTSEDSAVYYCARLNTHYVFDYWGQGTTLTVSS VL: EIVLTQSPTILAASPGEKITFTCSVSSSISSNYLHWYQQKPGFSPKLLIYRTSNLASGVPARFSGSGSGTSYSLTIGTMEAEDVATYYCQQGSGIPFTFGSGTKLEIK | –
